Experimental data published in the supplement of paper PMC7877785.
± gives the uncertainty stated by the source.

Test: self-splicing fitness, log relative to wild type (ln ratio); higher = more splicing; Tetrahymena group I intron in knt gene, E. coli kanamycin selection, DiMSum; sequences stand for … in CUCUCU…GGAGGGAAAAGUUAUCAGGCAUGCACCUGGUAGCUAGUCUUUAAACCAAUAGAUUGCAUCGGUUUAAAAGGCAAGACCGUCAAAUUGCGGGAAAGGGGUCAACAGCCGUUCAGUACCAAGUCUCAGGGGAAACUUUGAGAUGGCCUUGCAAAGGGUAUGGUAAUAAGCUGACGGACAUGGUCCUAACCACGCAGCCAAGUCCUAAGUCAACAGAUCUUCUGUUGAUAUGGAUGCAGUUCACAGACUAAAUGUCGGUCGGGGAAGAUGUAUUCUUCUCAUAAGAUAUAGUCGGACCUCUCCUUAAUGGGAGCUAGCGGAUGAAGUGAUGCAACACUGGAGCCGCUGGGAACUAAUUUGUAUGCGAAAGUAUAUUGAUUAGUUUUGGAGUACUCGUGGUCG
In short: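 A randomised library covering all eight P1ex-region intron nucleotides was built with the intron in the knt kanamycin-resistance gene on pET-22b(+) and held in E. coli BL21(DE3). Cells were grown overnight at 37°C or 30°C on LB agar, with or without 25 μg/mL kanamycin, plus 100 μg/mL carbenicillin, 50 μM IPTG and 0.2% rhamnose, and pooled colonies were amplicon-sequenced on an Illumina HiSeq 2500. DiMSum fitness is the error-weighted combination of wild-type-normalised replicate fold changes, kanamycin versus none.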

| Sequence | self-splicing fitness (ln) (30 °C) | self-splicing fitness (ln) (37 °C) |
| --- | --- | --- |
| AAGCAGCAAUAUUACGGGAC | -4.44 ± 0.46 | -3.38 ± 0.39 |
| AAGCAGCAAUAUUACGGGUA | -1.91 ± 0.15 | -2.31 ± 0.16 |
| AAGCAGCAAUAUUACGGGUU | -2.1 ± 0.094 | -1.61 ± 0.12 |
| AAGCAGCAAUAUUACGGUCG | -1.34 ± 0.061 | -0.879 ± 0.093 |
| AAGCAGCAAUAUUACGUCAA | -1.1 ± 0.091 | -1.36 ± 0.096 |
| AAGCAGCAAUAUUACGUGCU | -3.6 ± 0.15 | -1.85 ± 0.11 |
| AAGCAGCAAUAUUACGUUAG | -3.74 ± 0.18 | -2.52 ± 0.15 |
| AAGGAGCAAUAUUACGAAAA | -2.9 ± 0.39 | -1.84 ± 0.35 |
| AAGGAGCAAUAUUACGAAUC | – | -1.46 ± 0.36 |
| AAGGAGCAAUAUUACGACGG | – | -0.954 ± 0.16 |
| AAGGAGCAAUAUUACGAGAG | -1.62 ± 0.17 | -2.58 ± 0.34 |
| AAGGAGCAAUAUUACGAGUA | -3.6 ± 0.43 | -3.21 ± 0.4 |
| AAGGAGCAAUAUUACGCACU | -1.53 ± 0.17 | -0.454 ± 0.18 |
| AAGGAGCAAUAUUACGCCCC | -1.19 ± 0.47 | -1.42 ± 0.46 |
| AAGGAGCAAUAUUACGCGGU | -3.56 ± 0.26 | -1.37 ± 0.26 |
| AAGGAGCAAUAUUACGCGUG | -4.9 ± 0.45 | -2.1 ± 0.18 |
| AAGGAGCAAUAUUACGCUGA | -3.54 ± 0.23 | -1.44 ± 0.15 |
| AAGGAGCAAUAUUACGGAAU | -3.44 ± 0.25 | -2.71 ± 0.26 |
| AAGGAGCAAUAUUACGGAGG | -2.97 ± 0.22 | -1.59 ± 0.23 |
| AAGGAGCAAUAUUACGGCGA | -2.84 ± 0.32 | -0.936 ± 0.3 |

| Sequence | self-splicing fitness (ln) (30 °C) | self-splicing fitness (ln) (37 °C) |
| --- | --- | --- |
| AAGGAGCAAUAUUACGGGGG | -2.94 ± 0.19 | -0.0467 ± 0.21 |
| AAGGAGCAAUAUUACGUAGG | -3.12 ± 0.22 | -2.02 ± 0.44 |
| AAGGAGCAAUAUUACGUUCC | -3.48 ± 0.32 | -2.98 ± 0.35 |
| AAGUAGCAAUAUUACGAAAA | -2.83 ± 0.28 | -2.14 ± 0.26 |
| AAGUAGCAAUAUUACGAAGA | -2.57 ± 0.34 | -2.06 ± 0.34 |
| AAGUAGCAAUAUUACGAAGG | -2.75 ± 0.24 | -3.26 ± 0.47 |
| AAGUAGCAAUAUUACGACGG | -1.74 ± 0.29 | -1.66 ± 0.34 |
| AAGUAGCAAUAUUACGAGAC | -2.6 ± 0.33 | – |
| AAGUAGCAAUAUUACGAGGA | -2.04 ± 0.32 | -2.12 ± 0.34 |
| AAGUAGCAAUAUUACGCAGC | -3.59 ± 0.34 | -2.3 ± 0.24 |
| AAGUAGCAAUAUUACGCAGG | -3.61 ± 0.27 | -1.87 ± 0.15 |
| AAGUAGCAAUAUUACGCCAC | -3.93 ± 0.36 | -2.49 ± 0.42 |
| AAGUAGCAAUAUUACGCCAU | -2.41 ± 0.23 | -0.903 ± 0.26 |
| AAGUAGCAAUAUUACGCCCG | -1.26 ± 0.23 | -0.559 ± 0.22 |
| AAGUAGCAAUAUUACGCCGA | -1.53 ± 0.16 | -1.39 ± 0.17 |
| AAGUAGCAAUAUUACGCGAG | -1.74 ± 0.11 | -0.889 ± 0.13 |
| AAGUAGCAAUAUUACGCGCG | -0.335 ± 0.087 | -0.184 ± 0.12 |
| AAGUAGCAAUAUUACGCGUU | -2.09 ± 0.18 | -0.705 ± 0.17 |
| AAGUAGCAAUAUUACGCUGG | -2 ± 0.12 | -0.92 ± 0.12 |
